Test results reported in the Immune Epitope Database (IEDB).

What was measured:
HLA-A*24:03 = assay: IEDB peptide-MHC binding, purified MHC/direct/fluorescence; filed as Kd, often an IC50 or EC50 that approximates it; ≥ and ≤ were set here for values at or beyond the usual limits of such assays
HLA-A*02:16 = assay: as above; settings: source organism: Zaire ebolavirus
HLA-A*03:01 [1] = assay: as above
HLA-A*02:19 [2] = assay: as above; settings: source organism: Zaire ebolavirus
HLA-A*02:03 = assay: as above; settings: source organism: Zaire ebolavirus
HLA-A*29:02 = assay: as above
HLA-A*02:11 = assay: as above; settings: source organism: Zaire ebolavirus
HLA-A*68:02 [3] = assay: as above; settings: source organism: Zaire ebolavirus
HLA-A*02:12 [4] = assay: as above; settings: source organism: Zaire ebolavirus
HLA-B*46:01 [5] = assay: IEDB peptide-MHC binding, purified MHC/competitive/fluorescence; filed as Kd, often an IC50 or EC50 that approximates it; ≥ and ≤ were set here for values at or beyond the usual limits of such assays
HLA-B*15:17 = assay: as above
HLA-A*26:01 [6] = assay: as above
HLA-B*39:01 [7] = assay: as above
HLA-B*51:01 [8] = assay: as above
HLA-B*27:03 = assay: as above
HLA-B*15:01 [9] = assay: as above
HLA-B*18:01 [10] = assay: as above
HLA-A*02:01 [11] = assay: as above
HLA-B*57:01 [12] = assay: as above
HLA-A*69:01 [13] = assay: as above
HLA-B*53:01 = assay: IEDB peptide-MHC binding, purified MHC/competitive/radioactivity; filed as Kd, often an IC50 or EC50 that approximates it; ≥ and ≤ were set here for values at or beyond the usual limits of such assays; settings: source organism: Dengue virus 1 Brazil/97-11/1997
HLA-B*51:01 [14] = assay: IEDB peptide-MHC binding, purified MHC/direct/fluorescence; filed as Kd, often an IC50 or EC50 that approximates it; ≥ and ≤ were set here for values at or beyond the usual limits of such assays
HLA-B*40:01 = assay: as above
HLA-A*26:01 [15] = assay: as above
HLA-A*31:01 = assay: as above
HLA-A*01:01 = assay: as above
HLA-B*15:01 [16] = assay: as above
HLA-B*08:01 = assay: as above
HLA-B*58:01 = assay: as above
HLA-A*02:01 [17] = assay: as above
HLA-B*27:05 = assay: as above
HLA-A*30:01 = assay: as above
HLA-B*07:02 = assay: as above
HLA-A*11:01 = assay: as above
HLA-A*69:01 [18] = assay: as above
HLA-B*46:01 [19] = assay: as above; settings: source organism: Mycobacterium tuberculosis
HLA-B*44:02 = assay: as above; settings: source organism: Mycobacterium tuberculosis
HLA-B*39:01 [20] = assay: as above; settings: source organism: Mycobacterium tuberculosis
HLA-B*18:01 [21] = assay: as above; settings: source organism: Mycobacterium tuberculosis
HLA-B*48:01 = assay: as above; settings: source organism: Mycobacterium tuberculosis
HLA-B*57:01 [22] = assay: as above; settings: source organism: Mycobacterium tuberculosis
HLA-A*03:01 [23] = assay: IEDB peptide-MHC binding, purified MHC/competitive/fluorescence; filed as Kd, often an IC50 or EC50 that approximates it; ≥ and ≤ were set here for values at or beyond the usual limits of such assays; settings: source organism: Homo sapiens
HLA-A*02:19 [24] = assay: as above; settings: source organism: Homo sapiens
HLA-A*68:02 [25] = assay: as above; settings: source organism: Homo sapiens
HLA-A*02:12 [26] = assay: as above; settings: source organism: Homo sapiens
[27] = source organism: Zaire ebolavirus
[28] = source organism: Corynebacterium efficiens
[29] = source organism: Corynebacterium glutamicum
[30] = source organism: Yersinia pestis
[31] = source organism: Haemophilus influenzae
[32] = source organism: Mycobacterium tuberculosis

**Q.** How did the Kd (HLA-A*24:03; source organism: Reston ebolavirus - Reston) turn out when AFHQLVQVI was run?
**A.** Its Kd is 0.0021 µM.

**Q.** And the Kd (HLA-A*02:16)?
**A.** Its Kd is at least 20 µM.

**Q.** And the Kd (HLA-A*03:01 [1]; [27])?
**A.** The Kd was at least 20 µM.

**Q.** What about the Kd (HLA-A*02:19 [2]) of the same sequence?
**A.** The Kd was at least 20 µM.

**Q.** And the Kd (HLA-A*02:03)?
**A.** Its Kd is at least 20 µM.

**Q.** And the Kd (HLA-A*29:02; [27])?
**A.** Its Kd is at least 20 µM.

**Q.** What about the Kd (HLA-A*02:11) of the same sequence?
**A.** Its Kd is at least 20 µM.

**Q.** What about the Kd (HLA-A*68:02 [3]) of the same sequence?
**A.** The Kd was at least 20 µM.

**Q.** What about the Kd (HLA-A*02:12 [4]) of the same sequence?
**A.** Its Kd is at least 20 µM.

**Q.** And the Kd (HLA-B*46:01 [5]; [27])?
**A.** Its Kd is at least 20 µM.

**Q.** And the Kd (HLA-B*15:17; [27])?
**A.** Its Kd is at least 20 µM.

**Q.** And the Kd (HLA-A*26:01 [6]; [27])?
**A.** Its Kd is at least 20 µM.

**Q.** And the Kd (HLA-B*39:01 [7]; [27])?
**A.** The Kd was at least 20 µM.

**Q.** And the Kd (HLA-B*51:01 [8]; [27])?
**A.** The Kd was at least 20 µM.

**Q.** What about the Kd (HLA-B*27:03; [27]) of the same sequence?
**A.** Its Kd is at least 20 µM.

**Q.** And the Kd (HLA-B*15:01 [9]; [27])?
**A.** The Kd was at least 20 µM.

**Q.** What about the Kd (HLA-B*18:01 [10]; [27]) of the same sequence?
**A.** Its Kd is at least 20 µM.

**Q.** And the Kd (HLA-A*02:01 [11]; [27])?
**A.** The Kd was at least 20 µM.

**Q.** And the Kd (HLA-B*57:01 [12]; [27])?
**A.** The Kd was at least 20 µM.

**Q.** And the Kd (HLA-A*69:01 [13]; [27])?
**A.** The Kd was at least 20 µM.

**Q.** How did the Kd (HLA-B*53:01) turn out when CPTQGEATL was run?
**A.** The Kd was 0.0199 µM.

**Q.** And the Kd (HLA-B*51:01 [14]; source organism: Dengue virus)?
**A.** Its Kd is at least 20 µM.

**Q.** Which results are given for KLGDQFGRK?
**A.** Kd (HLA-B*40:01; [28]): ≥ 20 µM; Kd (HLA-A*26:01 [15]; [28]): ≥ 20 µM; Kd (HLA-A*24:03; [28]): ≥ 20 µM; Kd (HLA-A*31:01; [29]): 4.37 µM; Kd (HLA-A*01:01; [28]): ≥ 20 µM; Kd (HLA-B*15:01 [16]; [28]): ≥ 20 µM; Kd (HLA-A*03:01 [1]; [29]): 0.242 µM; Kd (HLA-B*08:01; [28]): ≥ 20 µM; Kd (HLA-B*58:01; [28]): ≥ 20 µM; Kd (HLA-A*02:01 [17]; [28]): ≥ 20 µM; Kd (HLA-B*27:05; [28]): ≥ 20 µM; Kd (HLA-A*30:01; [29]): 1.49 µM; Kd (HLA-B*07:02; [28]): ≥ 20 µM; Kd (HLA-A*11:01; [29]): 0.07 µM; Kd (HLA-A*69:01 [18]; [28]): ≥ 20 µM

**Q.** How did the Kd (HLA-B*51:01 [14]; [30]) turn out when LPLEFWQAW was run?
**A.** The Kd was at least 20 µM.

**Q.** And the Kd (HLA-B*15:01 [16]; source organism: Yersinia enterocolitica subsp. enterocolitica 8081)?
**A.** The Kd was at least 20 µM.

**Q.** And the Kd (HLA-B*07:02; [30])?
**A.** Its Kd is 0.235 µM.

**Q.** With MTMRRRLFK as the sequence, how does the Kd (HLA-B*40:01; [31]) read?
**A.** The Kd was at least 20 µM.

**Q.** What about the Kd (HLA-A*26:01 [15]; [31]) of the same sequence?
**A.** Its Kd is at least 20 µM.

**Q.** And the Kd (HLA-A*24:03; [31])?
**A.** Its Kd is at least 20 µM.

**Q.** What about the Kd (HLA-A*31:01; [31]) of the same sequence?
**A.** The Kd was 0.0202 µM.

**Q.** What about the Kd (HLA-A*01:01; [31]) of the same sequence?
**A.** The Kd was 14.5 µM.

**Q.** And the Kd (HLA-B*15:01 [16]; [31])?
**A.** The Kd was at least 20 µM.

**Q.** What about the Kd (HLA-A*03:01 [1]; [31]) of the same sequence?
**A.** Its Kd is 0.0531 µM.

**Q.** What about the Kd (HLA-B*08:01; [31]) of the same sequence?
**A.** The Kd was 5.63 µM.

**Q.** What about the Kd (HLA-A*02:01 [17]; [31]) of the same sequence?
**A.** The Kd was at least 20 µM.

**Q.** What about the Kd (HLA-B*27:05; [31]) of the same sequence?
**A.** Its Kd is at least 20 µM.

**Q.** And the Kd (HLA-A*30:01; [31])?
**A.** Its Kd is 0.00063 µM.

**Q.** What about the Kd (HLA-B*07:02; [31]) of the same sequence?
**A.** The Kd was at least 20 µM.

**Q.** And the Kd (HLA-A*11:01; [31])?
**A.** The Kd was 0.0142 µM.

**Q.** What about the Kd (HLA-A*69:01 [18]; [31]) of the same sequence?
**A.** The Kd was at least 20 µM.

**Q.** How did the Kd (HLA-B*46:01 [19]) turn out when QQDTNSAGL was run?
**A.** The Kd was at least 20 µM.

**Q.** And the Kd (HLA-B*44:02)?
**A.** Its Kd is at least 20 µM.

**Q.** What about the Kd (HLA-A*31:01; [32]) of the same sequence?
**A.** Its Kd is at least 20 µM.

**Q.** And the Kd (HLA-B*39:01 [20])?
**A.** The Kd was 0.301 µM.

**Q.** What about the Kd (HLA-A*01:01; [32]) of the same sequence?
**A.** The Kd was at least 20 µM.

**Q.** What about the Kd (HLA-B*15:01 [16]; [32]) of the same sequence?
**A.** Its Kd is at least 20 µM.

**Q.** What about the Kd (HLA-A*03:01 [1]; [32]) of the same sequence?
**A.** Its Kd is at least 20 µM.

**Q.** What about the Kd (HLA-B*18:01 [21]) of the same sequence?
**A.** Its Kd is at least 20 µM.

**Q.** What about the Kd (HLA-B*58:01; [32]) of the same sequence?
**A.** Its Kd is at least 20 µM.

**Q.** What about the Kd (HLA-A*29:02; [32]) of the same sequence?
**A.** Its Kd is at least 20 µM.

**Q.** What about the Kd (HLA-B*48:01) of the same sequence?
**A.** Its Kd is at least 20 µM.

**Q.** What about the Kd (HLA-B*57:01 [22]) of the same sequence?
**A.** The Kd was at least 20 µM.

**Q.** And the Kd (HLA-B*27:05; [32])?
**A.** Its Kd is at least 20 µM.

**Q.** What about the Kd (HLA-B*07:02; [32]) of the same sequence?
**A.** The Kd was at least 20 µM.

**Q.** What about the Kd (HLA-A*69:01 [18]; [32]) of the same sequence?
**A.** The Kd was at least 20 µM.

**Q.** Which results are given for SLFNWLWYE?
**A.** Kd (HLA-B*46:01 [5]; source organism: Homo sapiens): ≥ 20 µM; Kd (HLA-B*15:17; source organism: Homo sapiens): ≥ 20 µM; Kd (HLA-A*26:01 [6]; source organism: Homo sapiens): ≥ 20 µM; Kd (HLA-B*39:01 [7]; source organism: Homo sapiens): ≥ 20 µM; Kd (HLA-B*51:01 [8]; source organism: Homo sapiens): ≥ 20 µM; Kd (HLA-B*27:03; source organism: Homo sapiens): ≥ 20 µM; Kd (HLA-B*15:01 [9]; source organism: Homo sapiens): ≥ 20 µM; Kd (HLA-A*03:01 [23]): ≥ 20 µM; Kd (HLA-B*18:01 [10]; source organism: Homo sapiens): ≥ 20 µM; Kd (HLA-A*02:19 [24]): ≥ 20 µM; Kd (HLA-A*02:01 [11]; source organism: Homo sapiens): 0.196 µM; Kd (HLA-B*57:01 [12]; source organism: Homo sapiens): ≥ 20 µM; Kd (HLA-A*68:02 [25]): ≥ 20 µM; Kd (HLA-A*02:12 [26]): ≥ 20 µM; Kd (HLA-A*69:01 [13]; source organism: Homo sapiens): ≥ 20 µM
